Source: PMC9482650, “Quantitative fragmentomics allow affinity mapping of interactomes” (Nature Communications, 2022)

Experiments:
Assay in all cases: holdup assay
Set-up in all cases: key: below the threshold = too weak to quantify, mostly under pKd 3.1 to 4
HTRA3, P83110 = biological target: T1, HTRA3, P83110
T1 sequence (P83110 354-453, limits assumed, looked up): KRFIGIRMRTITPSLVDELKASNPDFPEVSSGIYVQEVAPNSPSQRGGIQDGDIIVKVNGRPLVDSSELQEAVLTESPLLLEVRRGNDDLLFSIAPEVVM

LNX1_2, Q8TBB1 = biological target: LNX1_2, Q8TBB1
NHERF3_1, Q5T2W1 = biological target: T2, NHERF3_1, Q5T2W1
T2 sequence (Q5T2W1 4-100, limits assumed, looked up): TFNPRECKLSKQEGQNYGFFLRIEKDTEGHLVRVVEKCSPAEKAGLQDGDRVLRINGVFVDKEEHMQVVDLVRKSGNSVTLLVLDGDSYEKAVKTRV

MAGI1_2, Q96QZ7 = biological target: MAGI1_2, Q96QZ7
NHERF3_3, Q5T2W1 = biological target: T3, NHERF3_3, Q5T2W1
T3 sequence (Q5T2W1 238-333, limits assumed, looked up): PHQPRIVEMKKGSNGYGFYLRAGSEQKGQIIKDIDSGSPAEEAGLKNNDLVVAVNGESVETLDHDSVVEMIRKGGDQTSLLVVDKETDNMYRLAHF

MPP6, Q9NZW5 = biological target: T4, MPP6, Q9NZW5
T4 sequence (Q9NZW5 125-219, limits assumed, looked up): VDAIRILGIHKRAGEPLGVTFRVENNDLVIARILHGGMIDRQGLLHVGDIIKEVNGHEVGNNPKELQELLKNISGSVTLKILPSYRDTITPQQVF

LNX2_2, Q8N448 = biological target: T5, LNX2_2, Q8N448
T5 sequence (Q8N448 334-432, limits assumed, looked up): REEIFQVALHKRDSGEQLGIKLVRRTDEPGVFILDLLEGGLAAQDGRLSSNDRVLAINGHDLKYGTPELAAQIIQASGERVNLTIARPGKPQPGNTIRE

Inadl_9, Q8NI35 = biological target: Inadl_9, Q8NI35
DLG1_3, Q12959 = biological target: DLG1_3, Q12959
Inadl_2, Q8NI35 = biological target: Inadl_2, Q8NI35
MPDZ_10, O75970 = biological target: T6, MPDZ_10, O75970
T6 sequence (O75970 1624-1722, limits assumed, looked up): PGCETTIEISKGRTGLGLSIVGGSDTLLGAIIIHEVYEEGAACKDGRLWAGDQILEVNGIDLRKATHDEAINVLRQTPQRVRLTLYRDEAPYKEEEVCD

LDB3, O75112 = biological target: LDB3, O75112
DLG3_1, Q92796 = biological target: T7, DLG3_1, Q92796
T7 sequence (Q92796 125-227, limits assumed, looked up): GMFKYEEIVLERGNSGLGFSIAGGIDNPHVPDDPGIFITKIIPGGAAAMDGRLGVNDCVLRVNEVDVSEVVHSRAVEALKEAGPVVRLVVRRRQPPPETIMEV

APBA2_1, Q99767 = biological target: T8, APBA2_1, Q99767
T8 sequence (Q99767 563-664, limits assumed, looked up): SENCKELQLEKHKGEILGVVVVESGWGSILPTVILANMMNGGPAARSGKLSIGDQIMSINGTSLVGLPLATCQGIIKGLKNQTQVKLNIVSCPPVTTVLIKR

NOS1, P29475 = biological target: NOS1, P29475
TJP3_3, O95049 = biological target: T9, TJP3_3, O95049
T9 sequence (O95049 375-456, limits assumed, looked up): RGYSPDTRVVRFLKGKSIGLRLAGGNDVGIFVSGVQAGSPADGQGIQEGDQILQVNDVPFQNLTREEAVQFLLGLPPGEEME

AHNAK1, Q09666 = biological target: AHNAK1, Q09666
NHERF4_1, Q86UT5-2 = biological target: NHERF4_1, Q86UT5-2
SCRIB_3, Q14160 = biological target: SCRIB_3, Q14160
PDLIM1, O00151 = biological target: PDLIM1, O00151
DLG1_2, Q12959 = biological target: DLG1_2, Q12959
SNTA1, Q13424 = biological target: T10, SNTA1, Q13424
T10 sequence (Q13424 82-180, limits assumed, looked up): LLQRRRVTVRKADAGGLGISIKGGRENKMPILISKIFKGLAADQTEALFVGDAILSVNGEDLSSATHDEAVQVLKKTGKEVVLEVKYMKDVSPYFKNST

DFNB31_3, Q9P202 = biological target: T11, DFNB31_3, Q9P202
T11 sequence (Q9P202 811-907, limits assumed, looked up): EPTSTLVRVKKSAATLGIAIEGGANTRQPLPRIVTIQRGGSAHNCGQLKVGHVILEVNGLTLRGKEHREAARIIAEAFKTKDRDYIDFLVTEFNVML

GORASP1, Q9BQQ3 = biological target: GORASP1, Q9BQQ3
RAPGEF6, Q8TEU7 = biological target: T12, RAPGEF6, Q8TEU7
T12 sequence (Q8TEU7 525-625, limits assumed, looked up): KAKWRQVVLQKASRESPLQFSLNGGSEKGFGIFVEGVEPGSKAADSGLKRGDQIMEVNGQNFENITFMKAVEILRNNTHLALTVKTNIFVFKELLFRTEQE

PICK1, Q9NRD5 = biological target: PICK1, Q9NRD5
[1] = plain residues with an end cap or a label only (N-terminal biotin on a linker: ado-ado)
[2] = plain residues with an end cap or a label only (N-terminal biotin on a linker: (peg)3)

Measured: pKd

Sequence of PDLIM1, O00151 (O00151 1-87): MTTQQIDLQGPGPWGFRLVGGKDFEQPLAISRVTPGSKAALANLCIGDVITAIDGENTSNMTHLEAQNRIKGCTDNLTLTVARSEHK
Sequence of Inadl_9, Q8NI35 (Q8NI35 1530-1615): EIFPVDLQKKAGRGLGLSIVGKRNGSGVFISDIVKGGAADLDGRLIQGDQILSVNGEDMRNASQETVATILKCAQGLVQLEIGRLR
Sequence of AHNAK1, Q09666 (Q09666 4-100): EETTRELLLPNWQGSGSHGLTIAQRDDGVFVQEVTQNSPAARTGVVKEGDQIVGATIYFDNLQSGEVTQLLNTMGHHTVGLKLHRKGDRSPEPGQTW
Sequence of SCRIB_3, Q14160 (Q14160 999-1103): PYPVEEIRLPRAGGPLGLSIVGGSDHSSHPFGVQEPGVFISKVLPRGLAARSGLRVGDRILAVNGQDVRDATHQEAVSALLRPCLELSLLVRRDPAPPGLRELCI
Sequence of PICK1, Q9NRD5 (Q9NRD5 17-115): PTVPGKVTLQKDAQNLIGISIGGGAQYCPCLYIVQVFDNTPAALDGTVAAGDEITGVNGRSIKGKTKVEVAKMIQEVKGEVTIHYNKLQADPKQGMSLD
Sequence of LDB3, O75112 (O75112 1-94): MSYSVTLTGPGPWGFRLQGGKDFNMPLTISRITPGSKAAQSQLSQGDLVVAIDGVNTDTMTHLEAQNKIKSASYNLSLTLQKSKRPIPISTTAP
Sequence of DLG1_2, Q12959 (Q12959 314-412): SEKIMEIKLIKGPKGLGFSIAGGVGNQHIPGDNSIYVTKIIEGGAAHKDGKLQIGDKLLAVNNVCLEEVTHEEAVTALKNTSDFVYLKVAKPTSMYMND
Sequence of MAGI1_2, Q96QZ7 (Q96QZ7 456-580): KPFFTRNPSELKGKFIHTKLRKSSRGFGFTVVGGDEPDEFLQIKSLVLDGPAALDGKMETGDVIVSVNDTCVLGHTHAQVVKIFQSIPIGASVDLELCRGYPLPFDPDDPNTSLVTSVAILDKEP
Sequence of NHERF4_1, Q86UT5-2 (Q86UT5 other isoform, or with tags, fused parts or gaps): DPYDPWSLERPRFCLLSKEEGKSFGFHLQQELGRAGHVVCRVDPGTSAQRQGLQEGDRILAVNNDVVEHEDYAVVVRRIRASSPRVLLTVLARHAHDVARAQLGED
Sequence of DLG1_3, Q12959 (Q12959 457-571): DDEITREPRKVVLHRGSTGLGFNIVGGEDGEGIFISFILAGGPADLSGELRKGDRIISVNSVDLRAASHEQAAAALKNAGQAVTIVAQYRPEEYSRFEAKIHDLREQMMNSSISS
Sequence of LNX1_2, Q8TBB1 (Q8TBB1 371-470): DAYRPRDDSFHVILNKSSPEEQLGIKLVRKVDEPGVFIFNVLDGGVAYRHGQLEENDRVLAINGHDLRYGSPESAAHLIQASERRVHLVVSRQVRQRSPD
Sequence of GORASP1, Q9BQQ3 (Q9BQQ3 1-208): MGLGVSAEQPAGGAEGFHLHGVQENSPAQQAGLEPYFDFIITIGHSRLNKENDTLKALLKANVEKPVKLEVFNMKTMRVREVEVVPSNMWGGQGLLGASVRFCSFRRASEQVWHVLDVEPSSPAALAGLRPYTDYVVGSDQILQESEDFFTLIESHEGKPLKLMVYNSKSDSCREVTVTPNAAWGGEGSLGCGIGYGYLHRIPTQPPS
Sequence of Inadl_2, Q8NI35 (Q8NI35 238-335): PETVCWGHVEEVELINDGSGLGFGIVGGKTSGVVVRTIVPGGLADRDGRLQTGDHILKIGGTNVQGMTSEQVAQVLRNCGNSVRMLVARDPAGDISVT
Sequence of NOS1, P29475 (P29475 9-101): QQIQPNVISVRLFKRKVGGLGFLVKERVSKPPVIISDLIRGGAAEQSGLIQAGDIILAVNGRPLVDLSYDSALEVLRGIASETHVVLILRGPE

B1: SLCO1A2, P46721 (peptide)
chain: LKDDELKTKL
4.17: NHERF3_3, Q5T2W1; [1]
below the threshold: HTRA3, P83110; [1] | LNX1_2, Q8TBB1; [1] | MAGI1_2, Q96QZ7; [1] | MPP6, Q9NZW5; [1] | LNX2_2, Q8N448; [1] | Inadl_9, Q8NI35; [1] | DLG1_3, Q12959; [1] | Inadl_2, Q8NI35; [1] | MPDZ_10, O75970; [1] | LDB3, O75112; [1] | DLG3_1, Q92796; [1] | APBA2_1, Q99767; [1] | TJP3_3, O95049; [1] | AHNAK1, Q09666; [1] | PDLIM1, O00151; [1] | DLG1_2, Q12959; [1] | SNTA1, Q13424; [1] | DFNB31_3, Q9P202; [1] | GORASP1, Q9BQQ3; [1] | RAPGEF6, Q8TEU7; [1] | PICK1, Q9NRD5; [1]
3.73: SCRIB_3, Q14160; [1]
3.91: NHERF4_1, Q86UT5-2; [1]
4.87: NHERF3_1, Q5T2W1; [1]
3.5: NOS1, P29475; [1]

B2: SBF1, O95248 (peptide)
chain: DRIQSCLSDA
below the threshold: LNX1_2, Q8TBB1; [1] | NHERF3_1, Q5T2W1; [1] | MAGI1_2, Q96QZ7; [1] | NHERF3_3, Q5T2W1; [1] | MPP6, Q9NZW5; [1] | LNX2_2, Q8N448; [1] | Inadl_9, Q8NI35; [1] | DLG1_3, Q12959; [1] | Inadl_2, Q8NI35; [1] | MPDZ_10, O75970; [1] | LDB3, O75112; [1] | DLG3_1, Q92796; [1] | APBA2_1, Q99767; [1] | NOS1, P29475; [1] | TJP3_3, O95049; [1] | AHNAK1, Q09666; [1] | NHERF4_1, Q86UT5-2; [1] | SCRIB_3, Q14160; [1] | PDLIM1, O00151; [1] | DLG1_2, Q12959; [1] | SNTA1, Q13424; [1] | GORASP1, Q9BQQ3; [1] | RAPGEF6, Q8TEU7; [1] | PICK1, Q9NRD5; [1]
3.57: HTRA3, P83110; [1]
3.74: DFNB31_3, Q9P202; [1]

B3: PTGIR, P43119 (peptide)
chain: AEASVACSLC
below the threshold: MAGI1_2, Q96QZ7; [1] | NHERF3_3, Q5T2W1; [1] | MPP6, Q9NZW5; [1] | Inadl_9, Q8NI35; [1] | DLG1_3, Q12959; [1] | Inadl_2, Q8NI35; [1] | LDB3, O75112; [1] | DLG3_1, Q92796; [1] | APBA2_1, Q99767; [1] | NOS1, P29475; [1] | TJP3_3, O95049; [1] | AHNAK1, Q09666; [1] | SCRIB_3, Q14160; [1] | PDLIM1, O00151; [1] | DLG1_2, Q12959; [1] | SNTA1, Q13424; [1] | GORASP1, Q9BQQ3; [1] | RAPGEF6, Q8TEU7; [1] | PICK1, Q9NRD5; [1]
3.75: DFNB31_3, Q9P202; [1]
4.54: NHERF4_1, Q86UT5-2; [1]
4.51: NHERF3_1, Q5T2W1; [1]
4.15: HTRA3, P83110; [1]
3.78: LNX2_2, Q8N448; [1]
3.47: MPDZ_10, O75970; [1]
3.68: LNX1_2, Q8TBB1; [1]

B4: NECTIN1, Q15223 (peptide)
chain: SFISKKEWYV
4.24: PICK1, Q9NRD5; [1]
4.46: LNX1_2, Q8TBB1; [1]
3.6: NOS1, P29475; [1]
4.83: HTRA3, P83110; [1]
4.1: TJP3_3, O95049; [1]
4.28: NHERF3_1, Q5T2W1; [1] | MAGI1_2, Q96QZ7; [1] | Inadl_9, Q8NI35; [1]
5.05: LNX2_2, Q8N448; [1]
3.77: DLG1_2, Q12959; [1]
below the threshold: NHERF3_3, Q5T2W1; [1] | DLG1_3, Q12959; [1] | MPDZ_10, O75970; [1] | LDB3, O75112; [1] | DLG3_1, Q92796; [1] | APBA2_1, Q99767; [1] | AHNAK1, Q09666; [1] | NHERF4_1, Q86UT5-2; [1] | SCRIB_3, Q14160; [1] | PDLIM1, O00151; [1] | SNTA1, Q13424; [1] | DFNB31_3, Q9P202; [1] | RAPGEF6, Q8TEU7; [1]
4.8: Inadl_2, Q8NI35; [1]
4.44: GORASP1, Q9BQQ3; [1]
4.42: MPP6, Q9NZW5; [1]

B5: HBV-HBc, P03193 (peptide)
chain: RRRRSQSRESQC
3.58: HTRA3, P83110; [2]
4.05: PICK1, Q9NRD5; [2]
4.58: DLG1_2, Q12959; [2]
3.86: NHERF4_1, Q86UT5-2; [2]
4.03: SCRIB_3, Q14160; [2]
3.59: DLG3_1, Q92796; [2]
4.07: MAGI1_2, Q96QZ7; [2]
3.98: DLG1_3, Q12959; [2]
4.44: NHERF3_1, Q5T2W1; [2] | SNTA1, Q13424; [2]
below the threshold: LNX1_2, Q8TBB1; [2] | NHERF3_3, Q5T2W1; [2] | MPP6, Q9NZW5; [2] | LNX2_2, Q8N448; [2] | Inadl_9, Q8NI35; [2] | Inadl_2, Q8NI35; [2] | MPDZ_10, O75970; [2] | LDB3, O75112; [2] | APBA2_1, Q99767; [2] | NOS1, P29475; [2] | TJP3_3, O95049; [2] | AHNAK1, Q09666; [2] | PDLIM1, O00151; [2] | DFNB31_3, Q9P202; [2] | GORASP1, Q9BQQ3; [2] | RAPGEF6, Q8TEU7; [2]
